Results from US20230322952A1 (BIOMUNEX PHARMACEUTICALS, published 2023).

Columns and labels:
[1] = target: T1, CD19 expressed on the cell surface of tumor cells (UniProt P15391 20-556, limits assumed); assay: cell-based or functional assay
T1 sequence (looked up): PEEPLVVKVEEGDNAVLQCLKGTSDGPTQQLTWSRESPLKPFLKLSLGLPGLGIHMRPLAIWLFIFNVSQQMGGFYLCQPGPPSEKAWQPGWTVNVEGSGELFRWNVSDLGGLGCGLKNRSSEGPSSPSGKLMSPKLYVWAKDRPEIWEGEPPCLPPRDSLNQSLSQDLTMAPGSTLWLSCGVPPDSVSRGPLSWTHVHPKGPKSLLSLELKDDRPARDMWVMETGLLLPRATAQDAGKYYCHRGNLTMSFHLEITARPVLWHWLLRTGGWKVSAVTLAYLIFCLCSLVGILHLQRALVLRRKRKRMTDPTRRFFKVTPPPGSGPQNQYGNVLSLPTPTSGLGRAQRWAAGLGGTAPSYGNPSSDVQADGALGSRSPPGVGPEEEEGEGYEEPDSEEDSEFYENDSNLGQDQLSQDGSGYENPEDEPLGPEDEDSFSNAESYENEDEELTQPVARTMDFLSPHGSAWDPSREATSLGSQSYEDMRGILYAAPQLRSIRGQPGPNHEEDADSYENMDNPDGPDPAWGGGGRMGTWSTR

[2] = target: T2, Vα7.2 TCR chain expressed on Vα7.2+CD8+ MAIT cells (human); assay: flow cytometry on Vα7.2+ cells among human CD8+ T cells
T2 construct: whole, on cells; also called TCR Vα7.2 chain; Vα7.2+ cells
T2 sequence (A0A0B4J238 19-106): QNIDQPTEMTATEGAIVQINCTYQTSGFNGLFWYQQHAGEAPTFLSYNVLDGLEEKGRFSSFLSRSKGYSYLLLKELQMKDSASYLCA
Protocol: The anti-Vα7.2/anti-CD19 Fab-Fab was then tested for binding on Vα7.2+CD8⁺ T cells. The assay was performed by flow cytometry. Human CD8⁺ T cells were isolated from purified peripheral blood mononuclear cells (PBMCs). Briefly, leukapheresis packs coming from healthy donors were centrifuged in ficoll gradients and the PBMCs were collected. CD8⁺ T cells were then isolated with a commercial negative selection kit (Miltenyi Biotec). These cells were then used to determine binding of anti-Vα7.2/anti-CD19 […] on Vα7.2⁺ cells. Cells were washed with PBS and stained with a Fixable Viability Dye (eFluor™ 780, ThermoFisher) and the human Fc Block reagent (BD) (in PBS for 25 min at 4° C.). The cells were then washed with FACS buffer (PBS, 2 mM EDTA, 0.5% BSA) and stained with different concentrations of anti-Vα7.2/anti-CD19 Fab-Fab (Table 3, shown in both nM and μg/ml) for 1 h at 4° C. An irrelevant Fab-Fab was used as a negative control. Following washing (5×), the cells were stained with a secondary goat anti-human antibody conjugated with Phycoerythrin (Jackson Immunoresearch) and an anti-CD8 antibody (Biolegend) for 45 min at 4° C. The cells were then analyzed in the MACSquant flow cytometer.
Depending on the donor, Vα7.2⁺ cells range between 1 to 10% of CD8⁺ T cells.

B1: anti-CD19/anti-Vα7.2 Fab-Fab (bispecific antibody)
heavy: QVQLQQSGAELVRPGSSVKISCKASGYAFSSYWMNWVKQRPGQGLEWIGQIWPGDGDTNYNGKFKGKATLTADESSSTAYMQLSSLASEDSAVYFCARRETTTVGRYYYAMDYWGQGTTVTVSSASTKGPSVFPLAPSSKSTSGGTAALGCLVKDYFPEPVTVSWNSGALTSGVHTFPAVLQSSGLYSLSSVVDVPSSSLGTQTYICNVNHKPSNTKVDKRVEPKSCDKTHTAPPAPAPELLGGPAAPPAPAPAGGEVQLQQSGAELVKPGASVKLSCTASGFNIKDTHMHWVKQRPEQGLEWIGRTDPASGDTKYDPKFQGKATITADTSSNTAYLHLSSLTSEDTAVYYCAHYYRDDVNYAMDYWGQGTTVTVSSASTKGPSVFPQAPSSKSTSGGTAALGCLVKDYFPEPVTVSWNSGALTSGVHTFPAVLQSSGLYSLVSVVTVPSSSLGTQTYICNVNHKPSNTKVDKRVEPKSC
light 1: not shown
light 2: DIVMTQSQKFLSTSVGDRVSVTCKARQNVGSNVAWYQQKPGQSPKSLIYSSSFRYSGVPDRFTGSGSGTDFTLTISNVQSEDLAEYFCQQYNTYPYTFGGGTELEIKRTVAAPSVFIFPPSDEQLKSGTASVTCLLNNFYPREAKVQWKVDNALQSGNSQESVTEQDSKDSTYSLVSTLTLSKADYEKHKVYACEVTHQGLSSPVTKSFNRGEC
[1]
  percentage of CD19+ A-549 tumor cells lysis: ≤ 30%

B2: anti-CD19/anti-Vα7.2 BiXAb (bispecific antibody, human IgG1, kappa, L234A L235A)
heavy: not shown
light 1: not shown
light 2: B1 light 2
[1]
  percentage of CD19+ A-549 tumor cells lysis: ≤ 30%

B3: anti-Vα7.2/anti-CD19 Fab-Fab (bispecific antibody)
heavy: EVQLQQSGAELVKPGASVKLSCTASGFNIKDTHMHWVKQRPEQGLEWIGRTDPASGDTKYDPKFQGKATITADTSSNTAYLHLSSLTSEDTAVYYCAHYYRDDVNYAMDYWGQGTTVTVSSASTKGPSVFPQAPSSKSTSGGTAALGCLVKDYFPEPVTVSWNSGALTSGVHTFPAVLQSSGLYSLVSVVTVPSSSLGTQTYICNVNHKPSNTKVDKRVEPKSCDKTHTAPPAPAPELLGGPAAPPAPAPAGGQVQLQQSGAELVRPGSSVKISCKASGYAFSSYWMNWVKQRPGQGLEWIGQIWPGDGDTNYNGKFKGKATLTADESSSTAYMQLSSLASEDSAVYFCARRETTTVGRYYYAMDYWGQGTTVTVSSASTKGPSVFPLAPSSKSTSGGTAALGCLVKDYFPEPVTVSWNSGALTSGVHTFPAVLQSSGLYSLSSVVDVPSSSLGTQTYICNVNHKPSNTKVDKRVEPKSC
light 1: not shown
light 2: B1 light 2
notes: Tandem Fab-Fab without Fc; anti-Vα7.2 Fab (from clone 3C10) at the N-terminus; also called Vα7.2/CD19 Fab-Fab
[2]
  EC50: 3.49 nM
[1]
  percentage of CD19+ A-549 tumor cells lysis: ≤ 30%

B4: anti-Vα7.2/anti-CD19 BiXAb (bispecific antibody, human IgG1, kappa, L234A L235A)
heavy: not shown
light 1: not shown
light 2: B1 light 2
[1]
  percentage of CD19+ A-549 tumor cells lysis: ≤ 30%
